Data on three sequences can be found in the Immune Epitope Database (IEDB).

The target of one test is HLA-C*12:03. In words: IEDB peptide-MHC binding, purified MHC/direct/fluorescence; filed as Kd, often an IC50 or EC50 that approximates it; ≥ and ≤ were set here for values at or beyond the usual limits of such assays. To be noted: source organism: Giardia lamblia ATCC 50803.
In the next test the target is HLA-A*24:03. The description is as above. To be noted: source organism: Giardia lamblia ATCC 50803.
The next test has as its target HLA-C*14:02. Nature of the test: IEDB peptide-MHC binding, purified MHC/competitive/fluorescence; filed as Kd, often an IC50 or EC50 that approximates it; ≥ and ≤ were set here for values at or beyond the usual limits of such assays. To be noted: source organism: Giardia lamblia ATCC 50803.
For another test, the target named is HLA-A*68:23. Described as above. To be noted: source organism: Giardia lamblia ATCC 50803.
The next test deals with HLA-B*15:42. Described as above. To be noted: source organism: Giardia lamblia ATCC 50803.
A further test has as its target HLA-C*06:02. The test is described as above. As to conditions: source organism: Giardia lamblia ATCC 50803.
A further test deals with HLA-B*45:06. The test is described as above. As to conditions: source organism: Giardia lamblia ATCC 50803.
The target in test [1] is HLA-B*46:01. Described as above. To be noted: source organism: Giardia lamblia ATCC 50803.
The target in a further test is HLA-A*32:07. The test is described as above. To be noted: source organism: Giardia lamblia ATCC 50803.
The next test has as its target HLA-B*83:01. The test is described as above. To be noted: source organism: Giardia lamblia ATCC 50803.
The next test concerns the target HLA-C*04:01. Described as above. To be noted: source organism: Giardia lamblia ATCC 50803.
The next test addresses HLA-A*32:15. The test is described as above. As to conditions: source organism: Giardia lamblia ATCC 50803.
Another test has as its target HLA-B*40:01. In words: IEDB peptide-MHC binding, purified MHC/direct/fluorescence; filed as Kd, often an IC50 or EC50 that approximates it; ≥ and ≤ were set here for values at or beyond the usual limits of such assays. To be noted: source organism: Marburg virus - Musoke, Kenya, 1980.
A further test deals with HLA-B*15:01. Described as above.
In test [2] the target is HLA-B*46:01. Described as above. As to conditions: source organism: Marburg virus - Musoke, Kenya, 1980.
A further test has as its target HLA-B*58:01. Described as above.
In another test the target is HLA-B*08:02. The test is described as above. As to conditions: source organism: Ravn virus - Ravn, Kenya, 1987.
For test [3], the target named is HLA-A*11:01. Described as above. As to conditions: source organism: Marburg virus - Musoke, Kenya, 1980.
Another test has as its target HLA-A*01:01. Described as above.
The target of a further test is HLA-B*18:01. The description is as above.
The target of a further test is HLA-A*03:01. The description is as above.
The target of a further test is HLA-B*27:05. The description is as above.
The target in test [4] is HLA-A*31:01. Described as above. To be noted: source organism: Marburg virus - Musoke, Kenya, 1980.
A further test addresses HLA-B*07:02. The description is as above.
The target in another test is HLA-B*57:01. The description is as above.
A further test addresses HLA-B*48:01. The test is described as above.
For test [5], the target named is HLA-A*02:01. Nature of the test: IEDB peptide-MHC binding, purified MHC/competitive/fluorescence; filed as Kd, often an IC50 or EC50 that approximates it; ≥ and ≤ were set here for values at or beyond the usual limits of such assays. To be noted: source organism: Orthomarburgvirus marburgense.
For test [6], the target named is HLA-A*26:03. The description is as above. To be noted: source organism: Orthomarburgvirus marburgense.
The target of test [7] is HLA-A*69:01. The description is as above. As to conditions: source organism: Orthomarburgvirus marburgense.
Another test addresses HLA-B*15:17. Described as above.
The target in test [8] is HLA-A*68:02. The test is described as above. To be noted: source organism: Orthomarburgvirus marburgense.
The next test deals with HLA-B*35:01. Described as above. To be noted: source organism: Orthomarburgvirus marburgense.
For a further test, the target named is HLA-A*26:02. The description is as above. To be noted: source organism: Orthomarburgvirus marburgense.
Another test concerns the target HLA-A*02:06. The test is described as above.
Test [9] concerns the target HLA-A*02:01. Nature of the test: IEDB peptide-MHC binding, purified MHC/direct/fluorescence; filed as Kd, often an IC50 or EC50 that approximates it; ≥ and ≤ were set here for values at or beyond the usual limits of such assays. As to conditions: source organism: Lyssavirus rabies.
Test [10] has as its target HLA-A*26:03. Described as above. As to conditions: source organism: Lyssavirus rabies.
Test [11] deals with HLA-A*69:01. The test is described as above. As to conditions: source organism: Lyssavirus rabies.
Test [12] addresses HLA-A*68:02. The test is described as above. To be noted: source organism: Lyssavirus rabies.
In another test the target is HLA-B*08:01. The description is as above. As to conditions: source organism: Lyssavirus rabies.
A further test deals with HLA-B*73:01. Described as above. As to conditions: source organism: Lyssavirus rabies.
Another test deals with HLA-B*15:09. Nature of the test: IEDB peptide-MHC binding, purified MHC/competitive/fluorescence; filed as Kd, often an IC50 or EC50 that approximates it; ≥ and ≤ were set here for values at or beyond the usual limits of such assays. To be noted: source organism: Lyssavirus rabies.
A further test concerns the target HLA-A*30:01. The description is as above. As to conditions: source organism: Lyssavirus rabies.
Test [13] addresses HLA-A*11:01. The test is described as above. As to conditions: source organism: Lyssavirus rabies.
Test [14] addresses HLA-A*31:01. The description is as above. As to conditions: source organism: Lyssavirus rabies.
Setting [15] is: source organism: Marburg virus - Musoke, Kenya, 1980.
The mark [16] stands for this setting: source organism: Orthomarburgvirus marburgense.
[17] abbreviates: source organism: Lyssavirus rabies.

Usually Kd stands for the constant that tells how readily two partners part at equilibrium. A high value points to weaker binding. In the case of YTFFFTQYF, the Kd in the test with HLA-C*12:03 is 0.044 µM; with HLA-A*24:03, 0.0285 µM; in the test with HLA-C*14:02, 0.0794 µM; with HLA-A*68:23, at most 0.0001 µM; with HLA-B*15:42 it was at least 5 µM; with HLA-C*06:02, 1.39 µM. For the same sequence, the dissociation constant Kd was at least 5 µM in the test with HLA-B*45:06; 0.342 µM with HLA-B*46:01 [1]; 0.0345 µM with HLA-A*32:07; at least 5 µM in the test with HLA-B*83:01; at least 5 µM in the test with HLA-C*04:01; 0.0911 µM with HLA-A*32:15.

Turning to TVLEFILQK, the dissociation constant (Kd) with HLA-B*40:01 is at least 20 µM; with HLA-B*15:01 (setting [15]) it was at least 20 µM; in the test with HLA-B*46:01 [2], at least 20 µM; with HLA-B*58:01 (setting [15]), at least 20 µM; with HLA-B*08:02, at least 20 µM; in the test with HLA-A*11:01 [3], 0.0023 µM. For the same sequence, the Kd in the test with HLA-A*01:01 (setting [15]) was at least 20 µM; with HLA-B*18:01 (setting [15]) it was at least 20 µM; with HLA-A*03:01 (setting [15]) it was 0.141 µM; with HLA-B*27:05 (setting [15]), at least 20 µM; in the test with HLA-A*31:01 [4] it was 0.119 µM; in the test with HLA-B*07:02 (setting [15]) it was at least 20 µM. Further, the equilibrium dissociation constant (Kd) with HLA-B*57:01 (setting [15]) was at least 20 µM; with HLA-B*48:01 (setting [15]), at least 20 µM; with HLA-A*02:01 [5], 1.17 µM; with HLA-A*26:03 [6], at least 20 µM; with HLA-A*69:01 [7] it was 0.827 µM; in the test with HLA-B*15:17 (setting [16]) it was at least 20 µM. Further, the Kd was 3.88 µM with HLA-A*68:02 [8], at least 20 µM with HLA-B*35:01, at least 20 µM in the test with HLA-A*26:02 and 0.776 µM with HLA-A*02:06 (setting [16]).

Turning to RQMKSGGRF, the Kd in the test with HLA-A*02:01 [9] was at least 20 µM; in the test with HLA-A*26:03 [10], at least 20 µM; with HLA-A*69:01 [11], at least 20 µM; in the test with HLA-B*15:01 (setting [17]) it was 0.119 µM; with HLA-A*68:02 [12], at least 20 µM; in the test with HLA-B*58:01 (setting [17]), at least 20 µM. The dissociation constant Kd with HLA-A*01:01 (setting [17]) is at least 20 µM; in the test with HLA-B*18:01 (setting [17]), at least 20 µM; in the test with HLA-B*08:01, at least 20 µM; in the test with HLA-A*03:01 (setting [17]), at least 20 µM; in the test with HLA-B*27:05 (setting [17]) it was 0.275 µM; with HLA-B*07:02 (setting [17]), at least 20 µM. Besides, the Kd was at least 20 µM in the test with HLA-B*73:01; at least 20 µM in the test with HLA-B*57:01 (setting [17]); 1.62 µM with HLA-B*48:01 (setting [17]); at least 20 µM in the test with HLA-B*15:09; 0.631 µM with HLA-B*15:17 (setting [17]); at least 20 µM with HLA-A*30:01. Also, the dissociation constant (Kd) in the test with HLA-A*11:01 [13] is at least 20 µM; in the test with HLA-A*31:01 [14], at least 20 µM; with HLA-A*02:06 (setting [17]), 0.476 µM.
